Laboratory results taken from the supplement of paper PMC7125110.
± gives the standard error. For part of these data: This sample holds only a part of the variants without activity.

B1: glmS ribozyme (parent)
chain: AUAAAAGCGCCAGAACUACAGAAAUGUAGUUGACGAGGAGGAGGUUUAUCGAAUUUUCGGCGGAUGCCUCCAAA

Columns and labels:
Settings in all cases: with glucosamine-6-phosphate
glucosamine-6-phosphate [1] = variants of: B1; test: kcat; higher = faster cleavage; RNA array
Outline: (§1)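 The measurements used barcoded ribozyme variants on sequenced MiSeq chips, transcribed in situ by E. coli RNA polymerase and tracked at 37 °C with a hybridised Cy3 probe. Glucosamine-6-phosphate, 40 μM to 10 mM in HEPES/KCl/Mg(OAc)2 buffer, was flowed in while tiles were imaged over ~14 h. Baseline-normalised signals, also normalised to non-cleaving reference variants, gave per-tile medians that were fit to one- or two-exponential decays for kobs. kcat and KM resulted from weighted Michaelis–Menten fits across concentrations.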

glucosamine-6-phosphate [2] = variants of: B1; test: self-cleavage kobs at 2500 uM GlcN6P; higher = faster cleavage; RNA array
Outline: as §1

glucosamine-6-phosphate [3] = variants of: B1; test: KM; higher = weaker cofactor use; RNA array
Outline: as §1

glucosamine-6-phosphate [4] = variants of: B1; test: self-cleavage kobs at 160 uM GlcN6P; higher = faster cleavage; RNA array
Outline: as §1

glucosamine-6-phosphate [5] = variants of: B1; test: self-cleavage kobs at 640 uM GlcN6P; higher = faster cleavage; RNA array
Outline: as §1

glucosamine-6-phosphate [6] = variants of: B1; test: self-cleavage kobs at 10000 uM GlcN6P; higher = faster cleavage; RNA array
Outline: as §1

glucosamine-6-phosphate [7] = variants of: B1; test: self-cleavage kobs at 40 uM GlcN6P; higher = faster cleavage; RNA array
Outline: as §1

| Variant | kcat (glucosamine-6-phosphate [1]) | self-cleavage kobs at 2500 uM GlcN6P (glucosamine-6-phosphate [2]) | KM (glucosamine-6-phosphate [3]) | self-cleavage kobs at 160 uM GlcN6P (glucosamine-6-phosphate [4]) | self-cleavage kobs at 640 uM GlcN6P (glucosamine-6-phosphate [5]) | self-cleavage kobs at 10000 uM GlcN6P (glucosamine-6-phosphate [6]) | self-cleavage kobs at 40 uM GlcN6P (glucosamine-6-phosphate [7]) |
| --- | --- | --- | --- | --- | --- | --- | --- |
| AUAAAAGCGCCAGAUCUACAGAAAUGUAGUUGACGAGGAGGAGGUUUAUCGAAUUUUCGGCGGAUGCAUCCAAA [A15U C68A] | 2.71e-05 ± 1e-05 s⁻¹ | 3.7e-05 ± 1.7e-05 s⁻¹ | – | – | – | – | – |
| AUAAAAGCGCCAGAACUACAGAAAUGUAGUUAACGAGGAGGAGGUUUAUCGAAUUUUCGGCGGAUGCCUCAAAA [G32A C71A] | 0.000628 ± 0.00012 s⁻¹ | 0.000293 ± 4.5e-05 s⁻¹ | 2570 ± 890 µM | 5.89e-05 ± 1.2e-05 s⁻¹ | 0.000112 ± 1.6e-05 s⁻¹ | 0.00052 ± 6e-05 s⁻¹ | – |
| AUAAAAGCGCCAGAACUACAGAAAUGUAAUUGACGAGGAGGAGGUUUAUCGAAUUCUCGGCGGAUGCCUCCAAA [G29A U56C] | 0.000719 ± 0.00026 s⁻¹ | 0.000226 ± 3.3e-05 s⁻¹ | – | 3.68e-05 ± 1.1e-05 s⁻¹ | 0.000156 ± 2.2e-05 s⁻¹ | 0.000619 ± 6.7e-05 s⁻¹ | – |
| AUAAACGCGCCAGAAUUACAGAAAUGUAGUUGACGAGGAGGAGGUUUAUCGAAUUUUCGGCGGAUGCCUCCAAA [A6C C16U] | 0.000207 ± 4.9e-05 s⁻¹ | 3.13e-05 ± 9e-06 s⁻¹ | – | – | – | 8.88e-05 ± 1.1e-05 s⁻¹ | – |
| AUAAAAGCGCCAGAACUACAGAAAUGUAAUUGACGAGGAGGAGGUUUAUCGAAUUUUCGCCGGAUGCCUCCAAA [G29A G60C] | < 1e-05 s⁻¹ | – | – | – | < 1e-05 s⁻¹ | < 1e-05 s⁻¹ | – |
| AUAAAAGCGCCAAAACUACAGAAAUGUAGUUGACGAGGAGGAGGUUAAUCGAAUUUUCGGCGGAUGCCUCCAAA [G13A U47A] | 0.000438 ± 6e-05 s⁻¹ | 0.000178 ± 3.2e-05 s⁻¹ | 3210 ± 750 µM | – | 7.42e-05 ± 1.6e-05 s⁻¹ | 0.000349 ± 6.5e-05 s⁻¹ | – |
| AUAAAAGCGCCAGAACUACAGAAAUGUAGUUGACGAGGAGGAGGAUUAUCGAAUUUUAGGCGGAUGCCUCCAAA [U45A C58A] | 0.00117 ± 0.00038 s⁻¹ | 0.000822 ± 0.00019 s⁻¹ | – | – | 0.000188 ± 3.8e-05 s⁻¹ | 0.000803 ± 0.00016 s⁻¹ | – |
| AUAAAAGCGCCAGUACUACAGAAAUGUAGUUGACGAGGAGGAGGUUUAUCGAAUUUUCGGCGGAUACCUCCAAA [A14U G66A] | 0.00402 ± 0.0012 s⁻¹ | 0.00172 ± 0.0003 s⁻¹ | 2120 ± 870 µM | 0.000254 ± 3.9e-05 s⁻¹ | 0.00104 ± 0.00029 s⁻¹ | 0.00403 ± 0.00059 s⁻¹ | 0.000107 ± 1.8e-05 s⁻¹ |
| AUAAAAGCGCCAGAACUACAGAAAUGUAGUCGACGAGGAGUAGGUUUAUCGAAUUUUCGGCGGAUGCCUCCAAA [U31C G41U] | 0.000175 ± 1.4e-05 s⁻¹ | 0.000117 ± 1.7e-05 s⁻¹ | 1350 ± 260 µM | – | 5.36e-05 ± 1e-05 s⁻¹ | 0.000153 ± 2e-05 s⁻¹ | – |
| AUAAAAACGCCAGCACUACAGAAAUGUAGUUGACGAGGAGGAGGUUUAUCGAAUUUUCGGCGGAUGCCUCCAAA [G7A A14C] | 1.34e-05 ± 5.9e-06 s⁻¹ | – | – | – | – | – | < 1e-05 s⁻¹ |
| AUAAAAGCGCCUGAACUACAGAAAUGUAGUUGACGAGGAGGAGGUAUAUCGAAUUUUCGGCGGAUGCCUCCAAA [A12U U46A] | 0.00538 ± 0.00031 s⁻¹ | 0.00326 ± 0.0006 s⁻¹ | 1720 ± 140 µM | – | 0.00161 ± 0.00033 s⁻¹ | 0.0045 ± 0.00062 s⁻¹ | 0.000119 ± 1.5e-05 s⁻¹ |
| AUAAAAGCGCCAGAACUACAGAAAUGUAGCUGACGAGGAGGAGGUCUAUUGAAUUUUCGGCGGAUGCCCCCAAA [U30C U46C C50U U69C] | 1.66e-05 ± 5e-06 s⁻¹ | – | – | – | – | – | – |
| AUAAAAGCGCCAGAACUACAGAAAUGUAUUUGACGAGGAGGAGGUUUAUCGAAUUUUCGGCGGCUGCCUCCAAA [G29U A64C] | 1.56e-05 ± 2.5e-06 s⁻¹ | – | – | – | – | – | < 1e-05 s⁻¹ |
| AUAAAAGCGCCAGAACUACAGAAAUGUAGUUGACGAGGAGGAGGUUUAUCGAAUUUUCGGCGGAAGCCUACAAA [U65A C70A] | 7.41e-05 ± 5e-06 s⁻¹ | 6.44e-05 ± 1.3e-05 s⁻¹ | 128 ± 49 µM | 4.4e-05 ± 1.4e-05 s⁻¹ | 5.79e-05 ± 1.2e-05 s⁻¹ | 8.15e-05 ± 1.3e-05 s⁻¹ | – |
| AUAAAAGCGCCAGAACUACAGAAAUGUAGUUGACGAGGAUGAGGUUUAUCGAAUUUUCGGCGGGUGCCUCCAAA [G40U A64G] | 0.000292 ± 2.9e-05 s⁻¹ | 0.000145 ± 2.8e-05 s⁻¹ | 1790 ± 360 µM | – | 8.19e-05 ± 1.2e-05 s⁻¹ | 0.00026 ± 3.3e-05 s⁻¹ | – |
| AUAAAAGCGCCAGGACUACAGAAAUGUAGUUGACGAGGAGGAGGAUUAGCGAAUUUUCGGCGGAUGCCUCCAAA [A14G U45A U49G] | 0.00282 ± 0.001 s⁻¹ | 0.00136 ± 0.00063 s⁻¹ | 2040 ± 970 µM | 0.000143 ± 3.9e-05 s⁻¹ | 0.000745 ± 0.00011 s⁻¹ | 0.00233 ± 0.00051 s⁻¹ | 8.34e-05 ± 1.7e-05 s⁻¹ |
| AUAAAAGCGCCAGAACUACAGAAAUGUAGUUGACGAGGAGGAGGUUUAUCGAAUUUUCGGCGGACACCUCCAAA [U65C G66A] | 0.000598 ± 0.00017 s⁻¹ | 0.000323 ± 0.00014 s⁻¹ | – | – | 0.000112 ± 3.9e-05 s⁻¹ | 0.000416 ± 7.9e-05 s⁻¹ | – |
| AUAAAAGCGCAAAAACUACAGAAAUGUAGUUGACGAGGAGGAGGUUUAUCGAAUUUUCGGCGGAUGCCUCCAAA [C11A G13A] | < 1e-05 s⁻¹ | – | – | – | – | – | < 1e-05 s⁻¹ |
